Measured values from paper PMC12346298, “Structures of MmpL complexes reveal the assembly and mechanism of this family of transporters” (Science Advances, 2025).

How the values were obtained:
[1] = molecular target: mycobacterial membrane protein large 5 (MmpL5) transporter, M. smegmatis (M. smegmatis) (UniProt A0QS80); test: cryo-EM structure; particle class 2 (tripartite trimeric AcpM-MmpL5-MmpS5 complex) from the same LMNG-solubilized crude membrane sample; Build and Retrieve processing; 2.81 Å
[2] = molecular target: mycobacterial membrane protein large 5 (MmpL5) transporter, M. smegmatis (M. smegmatis) (UniProt A0QS80); test: cryo-EM structure; particle class 3 (dipartite trimeric AcpM-MmpL5 complex) from the same LMNG-solubilized crude membrane sample; Build and Retrieve processing; 3.37 Å
[3] = molecular target: T1, mycobacterial membrane protein large 5 (MmpL5) transporter, M. smegmatis (M. smegmatis, UniProt A0QS80 1-967); test: cryo-EM structure; particle class 2 (tripartite trimeric AcpM-MmpL5-MmpS5 complex) from the same LMNG-solubilized crude membrane sample; Build and Retrieve processing; 2.81 Å; conditions: partners not purified
T1 construct: MmpL5 of Mycobacterium smegmatis, gene MSMEG_1382 cloned into pBUN250; 12 TM helices, periplasmic subdomains PD1-PD3 (PD3 = residues 499-684); Seen as a monomer (in 2D arrays) and as a homotrimer in different particle classes of one sample; Residues 493-702 are not modelled in 9MX0, residues 499-655 not in 9MW0; also called MSMEG_1382; source: M. smegmatis MC2-155, coexpressed with MmpS5 from …
T1 sequence (looked up): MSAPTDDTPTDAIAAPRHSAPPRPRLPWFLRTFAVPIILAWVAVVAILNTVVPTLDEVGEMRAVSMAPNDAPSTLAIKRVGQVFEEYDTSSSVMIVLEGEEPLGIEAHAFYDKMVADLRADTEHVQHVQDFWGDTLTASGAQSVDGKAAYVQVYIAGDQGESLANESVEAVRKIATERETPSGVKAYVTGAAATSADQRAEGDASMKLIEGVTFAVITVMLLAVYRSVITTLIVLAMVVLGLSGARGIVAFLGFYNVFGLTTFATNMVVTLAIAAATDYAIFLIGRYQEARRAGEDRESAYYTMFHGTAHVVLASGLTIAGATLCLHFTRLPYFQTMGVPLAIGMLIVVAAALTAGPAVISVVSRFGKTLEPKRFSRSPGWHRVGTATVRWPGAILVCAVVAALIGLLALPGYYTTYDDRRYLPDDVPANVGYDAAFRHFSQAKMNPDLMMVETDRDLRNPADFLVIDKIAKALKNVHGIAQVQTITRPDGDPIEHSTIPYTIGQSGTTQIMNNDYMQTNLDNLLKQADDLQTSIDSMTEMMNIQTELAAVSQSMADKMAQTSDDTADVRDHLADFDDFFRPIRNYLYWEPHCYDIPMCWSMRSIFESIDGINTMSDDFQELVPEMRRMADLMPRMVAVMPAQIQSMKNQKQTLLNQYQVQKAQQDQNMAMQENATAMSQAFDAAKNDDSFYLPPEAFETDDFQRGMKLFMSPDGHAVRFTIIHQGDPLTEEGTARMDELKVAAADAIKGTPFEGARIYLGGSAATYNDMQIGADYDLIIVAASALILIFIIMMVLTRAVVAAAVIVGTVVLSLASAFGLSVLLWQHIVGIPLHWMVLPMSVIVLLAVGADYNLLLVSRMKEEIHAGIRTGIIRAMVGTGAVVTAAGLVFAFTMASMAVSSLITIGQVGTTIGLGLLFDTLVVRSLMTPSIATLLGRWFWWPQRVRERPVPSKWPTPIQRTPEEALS

[4] = molecular target: T1, mycobacterial membrane protein large 5 …; test: cryo-EM structure; particle class 1 (2D arrays of monomeric AcpM-MmpL5 units) from LMNG-solubilized crude M. smegmatis membranes enriched by sucrose cushion; Build and Retrieve processing; 3.35 Å; conditions: partners not purified

MmpS5 adaptor protein, M. smegmatis (natural protein)
stoichiometry N (MmpS5:MmpL5 (3:3)) [1]: 1

mycobacterial membrane protein large 5 (MmpL5) transporter, M. smegmatis (from UniProt A0QS80 1-967) (natural protein)
stoichiometry N [2]: 3 | stoichiometry N [1]: 3

B1: meromycolate extension acyl carrier protein M (AcpM), M. smegmatis (natural protein, UniProt A0R0B3 1-99, looked up)
chain: MAATQEEIIAGLAEIIEEVTGIEPSEVTPEKSFVDDLDIDSLSMVEIAVQTEDKYGVKIPDEDLAGLRTVGDVVAYIQKLEEENPEAAAALREKFAADQ
notes: AcpM, cytosolic meromycolate extension acyl carrier protein of Mycobacterium smegmatis, not overexpressed; identified in the cryo-EM maps and by proteomics; four-helix bundle, 82 C-alpha atoms compared; Came with MmpL5 from the host cells; source: endogenous, M. smegmatis MC2-155; detergent-solubilized (LMNG) crude membranes, enriched by sucrose cushion centrifugation
stoichiometry N [3]: 1 AcpM:MmpL5 (3:3) | stoichiometry N [4]: 1 AcpM:MmpL5 (1:1)
